Laboratory results published in paper PMC10769870, “Bdellovibrio bacteriovorus uses chimeric fibre proteins to recognize and invade a broad range of bacterial hosts” (Nature Microbiology, 2024).

What was measured:
[1] = biological target: the molecule itself; test: crystal structure; Bd2133_(910–1,031), Morpheus A4, spacegroup P2_12_12_1, 1 Å
[2] = biological target: the molecule itself; test: crystal structure; Bd2740_(518–627), MIDAS F1, spacegroup P2_12_12_1, 2.6 Å
[3] = biological target: the molecule itself; test: crystal structure; Bd2439_(837–1,107), PACT H3 (P2_122_1) and MIDASplus E9 (P4); with ethylene glycol (1.6 Å) or GlcNAc–MurNAc (1.84 Å)
[4] = biological target: the molecule itself; test: crystal structure; Bd2133_(662–1,031), native and selenomethionine-labelled, Morpheus B3, spacegroup P6_322, 2.5 Å
[5] = biological target: the molecule itself; test: crystal structure; Bd1334_(914–1,151), PACT B9, spacegroup R3, 1.4 Å
[6] = biological target: the molecule itself; test: crystal structure; Bd3182_(632–922) crystallised by vapour diffusion at 18 °C in three forms (Morpheus C1, P2_1; Morpheus G12, I2; Proplex E3, another P2_1); the 1.1 Å form is described
[7] = biological target: the molecule itself; test: crystal structure; Bd1334_(818–1,151), Morpheus C1, spacegroup C2, 2.6 Å
[8] = biological target: the molecule itself; test: crystal structure; Bd2734_(691–843), JCSG+ A3, spacegroup P2_1, 1.8 Å

B1: Bd2133_(910–1,031), tip-only variant of Bd2133 (domain or fragment, Bdellovibrio bacteriovorus HD100, UniProt Q6ML84 910-1031, looked up)
chain: AATWTSLGLTSLGAVSMTTTTEQSFTLPVAAQTASQILVYLRCHSGNASTTGADDIRIYTKEGAATYDHYLLMFPYAGQGAVGYNSDSFWLPKTSDNKIYLAHSMAPGSANSGCNFYITGYK
notes: Bd2133 of Bdellovibrio bacteriovorus HD100, β-sandwich tip domain, A910 to the C-terminus (1031); Made by deletion from the plasmid of Bd2133_(662–1,031); also called tip-only variant (A910 onwards); source: E. coli BL21 RIPL (DE3), purified (Ni-NTA, TEV, Ni-NTA, Superdex 200)
B1: binds [1].

B2: Bd2740_(518–627), tip of the NS74 MAT fibre protein Bd2740 (domain or fragment, Bdellovibrio bacteriovorus HD100, UniProt Q6MJN2 518-627, looked up)
chain: APCDSGWTLINKGDPFCAKQQSVTGTNFATSMTQCLNNGGKLCDLQEAVGMCQTGFIPSNTTLWISQLADNSSAHVINCTSGSWSAGFYGFGVTVDGSNPILPYCCKGRR
notes: Bd2740 of Bdellovibrio bacteriovorus HD100 (627 aa), C-type lectin fold tip, residues 518-627 (the results print 517-626); Synthesised gene in pET29a; an Ala-Ser linker follows the hexa-His tag; source: E. coli BL21 RIPL (DE3), purified (Ni-NTA, Superdex 200)
For B2, the “stoichiometry N” value [2] was 3.

B3: Bd2439_(837–1,107), tip of the NS74 MAT fibre protein Bd2439 (domain or fragment, Bdellovibrio bacteriovorus HD100, UniProt Q6MKF5 837-1107, looked up)
chain: GGLDIVNNATGDDNRDDLNIRTYGATETSSLIMLRARGTASAPAAVQTGDRLGGVLFRGWNGTAWMGSGQILSVAEENFTTAVKTNLQFHVGGAGEAMRISNTGNVGIGTTTTTEKLNVQGNVAVSGEITSVRSWGIKRGPTSFSANYINVWNSGYHVGSSIDCTTSTTGCRILKAGTYEIRCVQRAGTSGNSVYVGIALNGDRTALESRNDVLWNHSHTAYSGSYTESNFMGTLSANDLITCGAPVNTMAADLVYAVPAYNGTMQIKRVD
notes: Bd2439 of Bdellovibrio bacteriovorus HD100, G837-D1107 (β-helix N850-V968, R969 linker, TNF-like tip S970-D1107); pET26b construct; source: E. coli BL21 RIPL (DE3), purified (Ni-NTA, Superdex 200)
B3 was tested, and the “stoichiometry N” value [3] was 3.

B4: Bd2133_(662–1,031), tip of the NS74 MAT fibre protein Bd2133 (domain or fragment, Bdellovibrio bacteriovorus HD100, UniProt Q6ML84 662-1031, looked up)
chain: NSSGALGLSTSGSERMRIDTSGNLGLGTAAPTSALHVERTQDADTTVQVRNTHDTGTAAGARFIASNEKSGIWFGISGTSNTNTGLGSPGDAYIYNAAGTATGKNLNVINNQTGNIHFFAGSTATGTPRMTITNTGLVGINTAAPLQKLHVENGNMVITGTAPAYQLKENDTTDQNWQMGINNGNLRFATQNDALNSSSDKVVISQAGNVGIGATAPTAKLEVAGTIHSTSGGIKFPDGSVQTTAASGAATWTSLGLTSLGAVSMTTTTEQSFTLPVAAQTASQILVYLRCHSGNASTTGADDIRIYTKEGAATYDHYLLMFPYAGQGAVGYNSDSFWLPKTSDNKIYLAHSMAPGSANSGCNFYITGYK
notes: Bd2133 of Bdellovibrio bacteriovorus HD100, N662 to the C-terminus (K1031); A selenomethionine-labelled form was also crystallised for phasing; source: E. coli BL21 RIPL (DE3), purified (Ni-NTA, TEV, Ni-NTA, Superdex 200)
In the case of B4, the “stoichiometry N” value [4] is reported as 3.

B5: Bd1334_(914–1,151) (domain or fragment, Bdellovibrio bacteriovorus HD100, UniProt Q6MNC5 914-1151, looked up)
chain: SAGTLAAPTAVTSGQSLTSLTAFAYNGTQYQSGGNASINFVATEAHTASAGGAKIIFNTTNNGATGSTEKVVIDQNGNVGVGVGAPTAKMDVNGGIKQPNYGIISAVRNSGGVTASMPWTNAYVLAHQGEMHQWVAGGPILQDSVTGCNAGPDAGVKFDSIATSWGGPYKVIFHTTGSNGAIHLEWSGWQVSLKNSAGTELAIGMGQVFATLHYDPAVSNWRVEHMFGRINNTNFTCW
notes: Bd1334 of Bdellovibrio bacteriovorus HD100, S914 to the C-terminus (W1151); also called Bd1334 from S914 onwards; source: E. coli BL21 RIPL (DE3), purified (Ni-NTA, TEV, Ni-NTA, Superdex 200)
B5 was tested, and the “stoichiometry N” value [5] was 3.

B6: Bd3182_(632–782), mature tip region of the MAT (mosaic adhesive trimer) fibre protein Bd3182 (domain or fragment, Bdellovibrio bacteriovorus HD100, UniProt Q6MIH5 632-782, looked up)
chain: GTNDAFSLSFETNNTPRMTIDDVGRVGVGTTAPTSALHVIGTGEVARFVTSATGGVVIDSTALNYNPSLIYRKTNINRWSMMVNAASETGGNAGSNLSILRYDDTGATLGAAVTIDRASGFFGINTAAPAYNIHVTGTAGLSTGSAWTVAS
notes: Bd3182 of Bdellovibrio bacteriovorus HD100, S74-group MAT fibre protein; expressed as residues 632-922, the S74 chaperone/protease domain cuts itself off at catalytic residue S782; the fibre part, labelled 632-782, was crystallised; the model traces P647 to A781; The methods name the cloned construct once as 668-922 and elsewhere as 632-922; also called Bd3182_(632–922) (construct before …)
With B6 the “stoichiometry N” value [6] was 3.

B7: Bd1334_(818–1,151), tip of the NS74 MAT fibre protein Bd1334 (domain or fragment, Bdellovibrio bacteriovorus HD100, UniProt Q6MNC5 818-1151, looked up)
chain: SSAETDFATAVNGNLRFYTAAAGTDSERMRITGSGLVGIGTPAPAVPLQVATRVPSSAVHPNRAGIQAVGEGTDVGGRISALVSSTIEMATFSGYQSAGTLAAPTAVTSGQSLTSLTAFAYNGTQYQSGGNASINFVATEAHTASAGGAKIIFNTTNNGATGSTEKVVIDQNGNVGVGVGAPTAKMDVNGGIKQPNYGIISAVRNSGGVTASMPWTNAYVLAHQGEMHQWVAGGPILQDSVTGCNAGPDAGVKFDSIATSWGGPYKVIFHTTGSNGAIHLEWSGWQVSLKNSAGTELAIGMGQVFATLHYDPAVSNWRVEHMFGRINNTNFTCW
notes: Bd1334 of Bdellovibrio bacteriovorus HD100, S818 to the C-terminus (W1151); The cloning paragraph prints this construct as Bd1334_(818–1,031); everywhere else it is 818–1,151; source: E. coli BL21 RIPL (DE3), purified (Ni-NTA, TEV, Ni-NTA, Superdex 200)
B7 was tested, and the “stoichiometry N” value [7] was 3.

B8: Bd2734_(691–843), tip-only variant of the NS74 MAT fibre protein Bd2734 (domain or fragment, Bdellovibrio bacteriovorus HD100, UniProt Q6MJN8 691-843, looked up)
chain: TSTLMGSLTMLGKAGCQWEHANTSFASFSNVVACNTATVTGLASAPTEGKIPGIRFANLPAGDYELTVLIFSMYPVDAGVYCRYRLWDGTNFSGMAGAYESEIYQMTGLFSYATDQTNLTFYVQAQTLTATKNCRADITVPGQDKMQIYLKKL
notes: Bd2734 of Bdellovibrio bacteriovorus HD100 (843 aa), TNF-like tip, T691-L843; pET26b construct; The count of three copies rests on the discussion's word that trimerization is invariant in the six solved MATs; source: E. coli BL21 RIPL (DE3), purified (Ni-NTA, Superdex 200)
B8: binds [8].
